Measurements reported in patent US20220204565A1 (DREXEL UNIVERSITY, published 2022).
Read-outs that look alike come from different tables or passages of the source. Bridges are numbered along the chain shown (N, C = ends). Where no end group is shown, it is not given here. [ ]: non-standard residue; d: D form. triazolo‑Pro(2,4-diMe-benzyl) = triazolo-proline with ortho- and para-methyl phenyl methyl on the triazole; triazolo‑Pro(3,4-diMe-benzyl) = triazolo-proline with para- and meta-methyl phenyl methyl on the triazole; triazolo‑Pro(3,5-diMe-benzyl) = triazolo-proline with two meta-methyl phenyl methyl on the triazole; triazolo‑Pro(2-Me-benzyl) = triazolo-proline with ortho-methyl phenyl methyl on the triazole; triazolo‑Pro(3-Me-benzyl) = triazolo-proline with meta-methyl phenyl methyl on the triazole; triazolo‑Pro(4-Me-benzyl) = triazolo-proline with para-methyl phenyl methyl on the triazole; triazolo‑Pro(4-tBu-phenyl) = triazolo-proline with para-tert-butylphenyl on the triazole; triazolo‑Pro(ferrocenyl) = triazolo-proline carrying a ferrocene moiety on the triazole; triazolo‑Pro(benzyl) = triazolo-proline with phenyl methyl moiety on the triazole; triazolo‑Pro(biphenyl) = triazolo-proline with biphenyl group on the triazole

How the values were obtained:
[1] = target: T1, wild type monomeric full-length HIV-1 YU-2 gp120 (HIV-1 YU-2, UniProt P35961 32-498); experiment: SPR competition: gp120 YU-2 with increasing peptide over immobilised 17b; competitor 17b
T1 construct: domain: gp120; also called gp120YU-2; gp120 YU-2
Procedure: (§1) For kinetic analyses, typically 2000-3000 RUs of protein reagents are immobilized on SPR chips, and analytes are passed over the surface at 50-100 μL/min. Surface regeneration is achieved by a 5 μL injection of 10 mM HCl solution at 100 μL/min.
(§2) Data analysis of SPR competition data was performed using BIAevaluation v4.1.1 software (GE). To correct for nonspecific binding, response signals from buffer injection and from control flow cell were subtracted from all sensorgrams. […] The inhibition curve was plotted and then fitted using the four-parameter equation as shown below using OriginPro 8 graphing software.

[2] = target: T1, wild type monomeric full-length HIV-1 …; experiment: SPR competition: gp120 YU-2 with increasing peptide over immobilised soluble CD4; competitor CD4
Procedure: as §1, §2

[3] = target: HIV-1 BaL.01 Env gp160 on pseudovirus (HIV-1 BaL.01); experiment: cell-based or functional assay
[4] = target: T1, wild type monomeric full-length HIV-1 …; experiment: SPR competition: gp120 YU-2 with increasing peptide over immobilised 17b; competitor 17b; remark: listed apart in the source
Procedure: as §1, §2

[5] = target: T1, wild type monomeric full-length HIV-1 …; experiment: ITC with monomeric gp120 YU-2
Procedure: (§3) The resulting heat changes were integrated, and the values obtained were fitted to a quadratic binding equation (one site binding model).
(§4) cPT dissociation constants were determined at 25° C. on a VP-Isothermal Titration Calorimeter (VP-ITC) system (MicroCal™, GE Healthcare, Freiburg). […] The resulting heat change upon injection was integrated over a time range of 300 sec, and the obtained values were fitted to a standard single-site binding model using ORIGIN®.

[6] = target: T1, wild type monomeric full-length HIV-1 …; experiment: SPR competition: fixed HIV-1 YU-2 gp120 mixed with rising concentrations of 36 and passed over immobilized 17b; y axis % gp120 binding to 17b falls from about 100 to near 0 between about 2 and 2500 nM
Procedure: as §1, §2

[7] = target: T1, wild type monomeric full-length HIV-1 …; experiment: SPR competition: fixed HIV-1 YU-2 gp120 mixed with rising concentrations of 36 and passed over immobilized soluble CD4; y axis % gp120 binding to CD4 falls from about 97 to about 10 between about 5 and 2500 nM
Procedure: as §1, §2

[8] = target: T1, wild type monomeric full-length HIV-1 …; experiment: SPR competition: gp120 YU-2 with increasing peptide over immobilised soluble CD4; competitor CD4; remark: listed apart in the source
Procedure: as §1, §2

[9] = target: HIV-1 BaL.01 Env gp160 on pseudovirus (HIV-1 BaL.01); experiment: cell-based or functional assay; remark: listed apart in the source
[10] = target: T1, wild type monomeric full-length HIV-1 …; experiment: ITC, peptide titrated into 30 µM full-length gp120 YU-2, 25 °C, PBS pH 7.3
Procedure: as §3, §4

[11] = target: T1, wild type monomeric full-length HIV-1 …; experiment: SPR competition: gp120 YU-2 with increasing peptide over immobilised soluble CD4; competitor CD4; CD4 competition column, not 17b competition
Procedure: as §1, §2

| Binder | IC50 [1] [nM] | IC50 [2] [nM] | HIV-1Bal.01 infection inhibition IC50 [3] [nM] | other results |
| --- | --- | --- | --- | --- |
| DNI[triazolo‑Pro(4-Me-benzyl)]WK-NH2 (lactam 1-6) [cPT 24] | 74 | 80 | 180 | – |
| DNI[4‑(4-(4-(thiophen-2-yl)phenyl)-1H-1,2,3-triazol-1-yl)proline]WK-NH2 (lactam 1-6, also called Compound 29N-2) [cPT 36 (29N-2)] | – | – | – | IC50 [4]: ~56 nM; -TΔS [5]: -4.74 kcal/mol; IC50 [6]: 56 nM; IC50 [7]: 66 nM; IC50 [8]: ~66 nM; HIV-1 infection inhibition IC50 [9]: ~105 nM; Kd [10]: 350 nM; ΔH [10]: -4.07 kcal/mol; ΔS [10]: 0.0159 kcal/mol |
| DNI[triazolo‑Pro]WK-NH2 (lactam 1-6; not fully specified) [cPT 18] | 647 | – | 1400 | HIV-1 cell infection inhibition IC50 [9]: ~1300 nM; IC50 [11]: 614 nM |
| DNI[triazolo‑Pro(4-tBu-phenyl)]WK-NH2 (lactam 1-6) [cPT 22] | 120 | 150 | 350 | – |
| DNIPWK-NH2 (lactam 1-6; not fully specified (residue 4); also: further groups not given here) [cPT 20] | 820 | 956 | 1200 | – |
| DNI[triazolo‑Pro(2-Me-benzyl)]WK-NH2 (lactam 1-6) [cPT 25] | 128 | 132 | 5100 | HIV-1 cell infection inhibition, fold lower potency against cPT 24 [9]: ~28 fold |
| DNI[triazolo‑Pro(3-Me-benzyl)]WK-NH2 (lactam 1-6) [cPT 26] | 228 | 234 | 220 | – |
| DNI[triazolo‑Pro(3,4-diMe-benzyl)]WK-NH2 (lactam 1-6) [cPT 29] | 2600 | 2800 | 8000 | – |
| DNI[triazolo‑Pro(biphenyl)]WK-NH2 (lactam 1-6) [cPT 23] | 720 | 680 | 269 | – |
| DNI[triazolo‑Pro(benzyl)]WK-NH2 (lactam 1-6) [cPT 19] | 269 | 257 | 438 | – |
| DNI[triazolo‑Pro(3,5-diMe-benzyl)]WK-NH2 (lactam 1-6) [cPT 28] | 918 | 926 | 2000 | – |
| DNI[triazolo‑Pro(4-iPr-phenyl)]WK-NH2 (lactam 1-6) [cPT 21] | 1260 | 1200 | 900 | – |
| DNI[triazolo‑Pro(ferrocenyl)]WK-NH2 (lactam 1-6, Ferrocene-containing parent cyclic peptide triazole; also called lead cPT 3) [cPT 3 (AAR029b)] | – | – | – | -TΔS [5]: -2.75 kcal/mol; HIV-1Bal.01 infection inhibition IC50 [9]: ~237 nM; Kd [10]: 415 nM; ΔH [10]: -5.96 kcal/mol; ΔS [10]: 0.00922 kcal/mol |
| DNI[triazolo‑Pro(2,4-diMe-benzyl)]WK-NH2 (lactam 1-6) [cPT 27] | 136 | 130 | 302 | – |
